We go through 167 variants from the RNAGym collection of RNA variant scans (doi:10.7554/elife.80360).

B1: HDV Ribozyme (parent)
chain: GGCCGGCAUGGUCCCAGCCUCCUCGCUGGCGCCGGCUGGGCAACAUUCCGAGGGGACCGUCCCCUCGGUAAUGGCGAAUGGGACCCA

In the data set the parent is B1. Briefly: self-cleavage, relative activity (ratio to wild type); higher = more cleavage; co-transcriptional.
Consider C33G G81C, for which the self-cleavage was determined as 0.151.

As for C18U C85A, the self-cleavage came out at 0.574.

Regarding G5C G52U, the self-cleavage was 0.23.

In the case of C63A A78G, the self-cleavage came to 0.404.

For C57G A70U, the self-cleavage was determined as 0.96.

As to C48G A56G, the self-cleavage was determined as 1.03.

For the variant G52A G67A, the self-cleavage was 0.923.

For A42G C86G, the self-cleavage was determined as 0.597.

Turning to G1A G55C, the self-cleavage worked out at 0.115.

Consider U27A C41A, for which the self-cleavage was 0.895.

As for C19G U20G, the self-cleavage was found to be 0.138.

With G17A C41G, the self-cleavage was found to be 0.0997.

Regarding A16U C75U, the self-cleavage turned out to be 0.189.

As for C7U C48A, the self-cleavage was 0.767.

As to A16U G59U, the self-cleavage amounted to 0.966.

For G54U U60C, the self-cleavage was determined as 1.

For the variant G5U U46G, the self-cleavage turned out to be 0.

Consider C26G G54C, for which the self-cleavage was found to be 0.782.

Take C33G C41A: the self-cleavage is 0.185.

Regarding C19G G67A, the self-cleavage was 0.0779.

As for A43U G74U, the self-cleavage is 0.684.

For G5U U20G, the self-cleavage was found to be 0.111.

For C30G C84A, the self-cleavage amounted to 0.

C13G G74A: the self-cleavage stood at 0.0405.

For the variant G80C G82U, the self-cleavage was determined as 0.0782.

On to G5U G31U, for which the self-cleavage came to 0.277.

In the case of A43G U47A, the self-cleavage turned out to be 0.383.

For C30A C58G, the self-cleavage amounted to 0.596.

On to C24A C36A, for which the self-cleavage was found to be 0.175.

For the variant C32A G81A, the self-cleavage stood at 0.0779.

Take C19G A51G: the self-cleavage is 0.0361.

Consider C18A C41G, for which the self-cleavage came out at 0.0554.

G38U G80U: the self-cleavage turned out to be 0.0802.

For the variant C15U U23G, the self-cleavage turned out to be 0.415.

As for C49G G67U, the self-cleavage was 0.9.

For A16C G28A, the self-cleavage was determined as 0.0449.

Regarding A43C A56G, the self-cleavage was determined as 0.404.

Regarding G54C A70U, the self-cleavage was determined as 0.81.

Regarding U12A A16G, the self-cleavage stood at 0.383.

Consider C26U G39C, for which the self-cleavage is 0.475.

With G11A G59U, the self-cleavage is 0.408.

As to C21U C36A, the self-cleavage is 0.0923.

Regarding A8C U37G, the self-cleavage is 0.166.

On to A16U G82A, for which the self-cleavage was determined as 0.745.

Turning to G35A G81C, the self-cleavage amounted to 0.188.

As for G1C C15A, the self-cleavage worked out at 0.

Turning to G34A U72G, the self-cleavage worked out at 0.0326.

Take G25C U72C: the self-cleavage amounted to 0.123.

On to C58U A77G, for which the self-cleavage is 0.929.

For the variant C3A C58G, the self-cleavage stood at 0.606.

Turning to C64U U65A, the self-cleavage worked out at 0.984.

As to C3U A78C, the self-cleavage amounted to 0.04.

Consider G1A G11A, for which the self-cleavage came out at 0.0779.

With A8U C24A, the self-cleavage came out at 0.208.

For G50U A83C, the self-cleavage amounted to 0.375.

For A56G G82A, the self-cleavage was 0.277.

As for C57G C86G, the self-cleavage came out at 0.831.

Take C7U G54A: the self-cleavage came out at 0.787.

On to U37A G55C, for which the self-cleavage was 0.299.

For G6A C18A, the self-cleavage was determined as 0.

For G67C C85A, the self-cleavage came to 0.7.

Regarding C66A G74A, the self-cleavage turned out to be 0.519.

As to C58G U60A, the self-cleavage is 1.06.

As to U9C C49U, the self-cleavage is 0.959.

Turning to C14U C36A, the self-cleavage came out at 0.128.

Consider C41U U46C, for which the self-cleavage was 0.734.

Regarding G67C G68C, the self-cleavage stood at 0.566.

For G6A G39U, the self-cleavage worked out at 0.317.

As to G5C U23C, the self-cleavage was determined as 0.208.

In the case of U12A C22U, the self-cleavage is 0.0426.

Take C63G A87C: the self-cleavage came out at 0.737.

As for U9A U37C, the self-cleavage was found to be 1.07.

For the variant G38A G50A, the self-cleavage was 0.0886.

On to C7U A77G, for which the self-cleavage was found to be 0.434.

In the case of A45U A51C, the self-cleavage worked out at 0.796.

Take C13G U60C: the self-cleavage was 0.

For the variant U23G G53U, the self-cleavage was 0.866.

Turning to A43G A78C, the self-cleavage is 0.0415.

For G10C C13A, the self-cleavage was found to be 0.

For C24G G82A, the self-cleavage is 0.

With C13G C48G, the self-cleavage is 0.0615.

Regarding G40U C63A, the self-cleavage was 0.793.

In the case of C24A G50U, the self-cleavage worked out at 0.641.

Consider G54C G82C, for which the self-cleavage came out at 0.397.

As for G28C A70C, the self-cleavage was 0.104.

For G28C A70U, the self-cleavage was determined as 0.101.

With G28C G52C, the self-cleavage was 0.229.

As for G25U C64U, the self-cleavage was 0.113.

For the variant G52U U69G, the self-cleavage came out at 1.19.

With C4U U9A, the self-cleavage is 0.739.

Take G6C G29A: the self-cleavage is 0.

For G6C G29C, the self-cleavage turned out to be 0.161.

C15A C41G: the self-cleavage was 0.285.

For the variant C22A C66U, the self-cleavage amounted to 0.302.

As for U20A G55C, the self-cleavage stood at 0.0536.

For U12G C14G, the self-cleavage turned out to be 0.

On to C30A G68U, for which the self-cleavage turned out to be 0.569.

Turning to G1U A77G, the self-cleavage is 0.406.

As to G25C U47G, the self-cleavage is 0.119.

Consider A43U A45G, for which the self-cleavage was 0.57.

In the case of A8C C86U, the self-cleavage worked out at 0.862.

Consider C32U C49U, for which the self-cleavage came out at 0.803.

For the variant C44U G52C, the self-cleavage turned out to be 0.806.

With U46G U47C, the self-cleavage worked out at 0.623.

Regarding U12G A78C, the self-cleavage was found to be 0.0594.

As to C32G U47C, the self-cleavage worked out at 0.0852.

As to U9C G68A, the self-cleavage was determined as 1.17.

Regarding C19G C32U, the self-cleavage turned out to be 0.0302.

Consider G25U U37C, for which the self-cleavage worked out at 0.17.

On to C26U A56U, for which the self-cleavage is 1.12.

In the case of U12G C86G, the self-cleavage amounted to 0.59.

With C19A C41G, the self-cleavage was 0.

Take C48G C75A: the self-cleavage was determined as 0.175.

In the case of G10C U69G, the self-cleavage was 0.997.

Turning to G80U G81C, the self-cleavage turned out to be 0.199.

Consider C22G C24U, for which the self-cleavage is 0.104.

In the case of C15A U37A, the self-cleavage amounted to 0.102.

Take G1A A43G: the self-cleavage worked out at 0.0875.

For the variant G38A, the self-cleavage worked out at 0.157.

Regarding C14G G76A, the self-cleavage is 0.831.

Turning to C58A C84U, the self-cleavage turned out to be 0.919.

As to A56C G81U, the self-cleavage came to 0.277.

For U23A G53C, the self-cleavage was 1.12.

With C14A C57G, the self-cleavage was 0.72.

G52A C63G: the self-cleavage was 0.415.

Take U46G C85U: the self-cleavage came to 0.831.

With C7G G53C, the self-cleavage was 0.

Consider C62G G82A, for which the self-cleavage was found to be 0.267.

Take C3G A45C: the self-cleavage came to 0.113.

U60G A71C: the self-cleavage was found to be 1.21.

Consider A8C C44A, for which the self-cleavage was found to be 0.222.

In the case of C30G C58G, the self-cleavage was found to be 0.0804.

As for G54U C75A, the self-cleavage was 0.241.

On to C33U U60A, for which the self-cleavage worked out at 0.696.

For the variant G11U C61A, the self-cleavage was 0.355.

G55U G67U: the self-cleavage stood at 1.07.

C13G C84G: the self-cleavage is 0.0978.

With C13G C84A, the self-cleavage was 0.

Consider C4U A16C, for which the self-cleavage came to 0.434.

As to G29A G39C, the self-cleavage amounted to 0.0941.

Take A51G A78C: the self-cleavage stood at 0.318.

Regarding C14A G55C, the self-cleavage is 0.767.

For the variant G39A A78C, the self-cleavage stood at 0.0563.

Consider G28U C30A, for which the self-cleavage amounted to 0.0923.

Regarding C18A G53A, the self-cleavage came out at 0.0652.

For the variant A51G C57U, the self-cleavage came out at 0.85.

For the variant C14G C57U, the self-cleavage was found to be 0.665.

For U37G A70U, the self-cleavage was 0.229.

Turning to C3G U47A, the self-cleavage is 0.594.

Regarding G40A C41G, the self-cleavage was determined as 0.937.

For G67C G81A, the self-cleavage was found to be 0.369.

With U72C U79C, the self-cleavage was found to be 0.277.

With G28U A78C, the self-cleavage was found to be 0.0923.

G29A C57A: the self-cleavage was 0.282.

Take C36A A56G: the self-cleavage was 0.145.

As to C15U A56U, the self-cleavage was determined as 0.91.

For G11A A43C, the self-cleavage came out at 0.106.

Consider C13A A83C, for which the self-cleavage came out at 0.166.

Turning to C24A C30G, the self-cleavage came to 0.089.

G25C U46G: the self-cleavage is 0.

C24U G52A: the self-cleavage amounted to 0.554.

On to G11U A42G, for which the self-cleavage came out at 0.0386.

For C22G C30U, the self-cleavage amounted to 0.0723.

As to U27G G59C, the self-cleavage was determined as 1.03.

Take C26A C64U: the self-cleavage was determined as 1.13.

As for C7A A8C, the self-cleavage was found to be 0.65.

On to C44A C84G, for which the self-cleavage was determined as 0.0519.
